Test results: patent publication KR20230163144A

B1: WM-A1-2608 (antibody, V domains shown)
VH: QVQLVQSGGGLVQPGGSLRLSCEASGFAFRRYEMNWVRQTPGKGLEWIAYINSGGSVKVYADSVKGRFAISRNDSKNSLYLQMNSLRAEDTAVYYCARAGNAFGTFDYWGQGTLVTVSS
VL: DIQMTQSPSSVSASVGDRVTITCRASQDISRWLAWYQQKPGKAPKRLMYAASVLDVGVPSRFSGSGSGTDFTLTISNLQPEDFATYYCQQPISFPLTFGGGTKVDIK
B2: WM-A1-2613 (antibody, V domains shown)
VH: QVQLQESGPGLVKPSGTLSLTCAVSGDSVISTDWWSWVRQPPGKELEWIGEIHHSGSTNYNPSLEGRVTISVDKSKNQFSLKLTSVTAVDTAVYYCSRGSGGRDAFDVWGQGTMITVSS
VL: QSALTQPPSSSGTPGQKVTISCSGSMSNIGGNYVSWYQQVPGTAPKLLIFKTNQGAAGVPDRFVGSKSGTSASLVISGLRPEDEATYYCASWDDIGDGPTWVFGGGTKLTVL
B3: WM-A1-3102 (antibody, V domains shown)
VH: QMQLVQSGAEVKKPGSSVKVSCKASGGTFSSYAISWVRQAPGQGLEWMGGIIPVLGATNYAQRFQGRVTMTADESTTTAYMELSGLRSEDTAVYYCARGRSWGFDYWGHGTLITVSS
VL: DIVMTQTPLSLPVTPGQPASISCKSSQSLLHSDGNTYLDWYLQKPGQSPQLLIYTLSHRASGVPDRFSGSGSGTDFTLKISRVEADDVGLYYCMQRIEFPYTFGQGTKVEIK
B4: WM-A1-3105 (antibody, V domains shown)
VH: QMQLVQSGAEVKRPGSSVKVSCKASGRSTYNYAFYWVRQAPGHGLEWMGGIIPIFGATNYAQKFQGRVTITADESTNTAYMEVTNLRSEDTAVYYCAKGSGNYYYGMDVWGQGTTVTVSS
VL: DIQMTQSPSSVSASVGDRVTITCRASQSVGTWLAWYQQKPGRAPKLLISAASSLHPGVPSRFSGSGSGTDFTLTISSLQPEDFATYYCQQADSFPYTFGQGTKLEIK
B5: WM-A1-3106 (antibody, V domains shown)
VH: QVQLVESGGGVVPPGGSVRLSCAASGFTFGDYAMHWVRQAPGKGLEWVSLISGDGGTTYYGDSVKGRYTISRDNSKNSLYLQMNSLRAEDTAVYYCARGGRVYGMDVWGQGTTVTVSS
VL: DIQMTQSPSSLSASVGNRVTITCRASQGISVWLAWFQQKPETAPKSLIYGSSNLQSGVPSRFSGSGSGTDFTLTINNLQPEDFATYYCQQYKASPPTFGGGTKVDIK
B6: WM-A1-3128 (antibody, V domains shown)
VH: QVQLVESGGGVVQPGKSLRLSCAASGFSLRTYGMHWVRQAPGKGLEWVANIWHDGSHTFYADSVQGRFTVSRDNSANLLFLQMNSLRAEDTAVYYCARGGSYSRYSDAFDIWGQGTVITVSS
VL: DIQMTQSPGTLSLSPGERATLSCRASQSVSSSYLAWYQQKPGQAPRLLIYDASNRATGIPARFSGTGSGTDFTLTISSLEPEDFAVYYCQQRSNWPLTFGGGTKVEIK
B7: WM-A1-3133 (antibody, V domains shown)
VH: QMQLVQSGGKLVQPGSSLRLSCAASGFSFDDYGMSWVRQAPGKGLEWVSAISGSGGSTYYADSVKGRFTISRDNSKNTLYLQMNSLRAEDTAVYYCARGGRVYGMDVWGQGTTVTVSS
VL: DIQMTQSPSSVSASVGDTVTITCRASHDIRRWLAWYQQKPGEVPKVLIYAAAVLHSGVPSRFSGSGSGTDFSLTITNLQPEDVATYYCQKYDSVPFTFGGGTKLEIK

biological target: IGSF1 항원 (IGSF1 카복시 말단 도메인의 세포외 도메인 - 인간 Fc - his tag 융합 단백질) (human) (UniProt Q8N6C5); assay: ELISA; human IGSF1 antigen diluted 1/3 from 100 nM to 0.046 nM; fit in GraphPad Prism 6

B1 and B2 are within 1.5-fold of each other in Kd: 0.097 nM for the first, 0.1 nM for the second.

Compared with B3, B4 is 1.6-fold higher in Kd: 18.8 nM for the first, 29.5 nM for the second. The first binds more tightly here.

B5 and B6 are within 1.5-fold of each other in Kd: 20.8 nM for the first, 27.2 nM for the second.

For B7, the Kd was 300 nM.
